{"source": "the RNAGym collection of RNA variant scans (doi:10.7554/elife.80360)", "parents": {"B1": {"name": "Twister Ribozyme (parent)", "chain": "AACACUGCCAAUGCCGGUCCCAAGCCCGGAUAAAAGUGGAGGGGGCGG"}}}
{"variants_of": "B1", "experiment": "self-cleavage, relative activity (ratio to wild type); higher = more cleavage; co-transcriptional"}
{"variant": "AACACUGCCAAUGGCGGUCCCAAGCCCGGAUAAAAGUGGAGGGGCCGG", "note": "[C14G G45C]", "self-cleavage": 0.0594}
{"variant": "AACACUGCCAAUGGCGGUCCCAAGCCCGGAUAAAAGUGGAGGGGACGG", "note": "[C14G G45A]", "self-cleavage": 0.113}
{"variant": "AACACUGCCAAUGGCGGUCCCAAGCCCGGAUAAAAGUGGAGGGGUCGG", "note": "[C14G G45U]", "self-cleavage": 0.101}
{"variant": "AACACUGCCAAUGACGGUCCCAAGCCCGGAUAAAAGUGGAGGGGGCUG", "note": "[C14A G47U]", "self-cleavage": 0.66}
{"variant": "AACACUGCCAAUGACGGUCCCAAGCCCGGAUAAAAGUGGAGGGGGCAG", "note": "[C14A G47A]", "self-cleavage": 0.749}
{"variant": "AACACUGCCAAUGGCGGUCCCAAGCCCGGAUAAAAGUGUAGGGGGCGG", "note": "[C14G G39U]", "self-cleavage": 0.0771}
{"variant": "AACACUGCCAAUGGCGGUCCCAAGCCCGGAUAAAAGUGCAGGGGGCGG", "note": "[C14G G39C]", "self-cleavage": 0.0468}
{"variant": "AACACUGCCAAUGGCGGUCCCAAGCCCGGAUAAAAGUGAAGGGGGCGG", "note": "[C14G G39A]", "self-cleavage": 0.0534}
{"variant": "AACACUGCCAAUGGCGGUCCCAAGCCCGGAUAAAAGUGGAGGGGGCUG", "note": "[C14G G47U]", "self-cleavage": 0.0804}
{"variant": "AACACUGCCAAUGGCGGUCCCAAGCCCGGAUAAAAGUGGAGGGGGCCG", "note": "[C14G G47C]", "self-cleavage": 0.0728}
{"variant": "AACACUGCCAAUGACGGUCCCAAGCCCGGAUAAAAGUUGAGGGGGCGG", "note": "[C14A G38U]", "self-cleavage": 0.676}
{"variant": "AACACUGCCAAUGGCGGUCCCAAGCCCGGAUAAAAGUAGAGGGGGCGG", "note": "[C14G G38A]", "self-cleavage": 0.127}
{"variant": "AACACUGCCAAUGACGGUCCCAAGCACGGAUAAAAGUGGAGGGGGCGG", "note": "[C14A C26A]", "self-cleavage": 0.38}
{"variant": "AACACUGCCAAUGACGGUCCCAAGCUCGGAUAAAAGUGGAGGGGGCGG", "note": "[C14A C26U]", "self-cleavage": 0.247}
{"variant": "AACACUGCCAAUGGCCGUCCCAAGCCCGGAUAAAAGUGGAGGGGGCGG", "note": "[C14G G16C]", "self-cleavage": 0.143}
{"variant": "AACACUGCCAAUGGCAGUCCCAAGCCCGGAUAAAAGUGGAGGGGGCGG", "note": "[C14G G16A]", "self-cleavage": 0.0993}
{"variant": "AACACUGCCAAUGACGGUCACAAGCCCGGAUAAAAGUGGAGGGGGCGG", "note": "[C14A C20A]", "self-cleavage": 0.165}
{"variant": "AACACUGCCAAUGACGGUCGCAAGCCCGGAUAAAAGUGGAGGGGGCGG", "note": "[C14A C20G]", "self-cleavage": 0.126}
{"variant": "AACACUGCCAAUGGCGGUCACAAGCCCGGAUAAAAGUGGAGGGGGCGG", "note": "[C14G C20A]", "self-cleavage": 0.104}
{"variant": "AACACUGCCAAUGGCGGUCCCUAGCCCGGAUAAAAGUGGAGGGGGCGG", "note": "[C14G A22U]", "self-cleavage": 0.128}
{"variant": "AACACUGCCAAUGGCGGUCCCCAGCCCGGAUAAAAGUGGAGGGGGCGG", "note": "[C14G A22C]", "self-cleavage": 0.372}
{"variant": "AACACUGCCAAUGGCGGCCCCAAGCCCGGAUAAAAGUGGAGGGGGCGG", "note": "[C14G U18C]", "self-cleavage": 0.074}
{"variant": "AACACUGCCAAUGGCGGGCCCAAGCCCGGAUAAAAGUGGAGGGGGCGG", "note": "[C14G U18G]", "self-cleavage": 0.0282}
{"variant": "AACACUGCCAAUGGCGGACCCAAGCCCGGAUAAAAGUGGAGGGGGCGG", "note": "[C14G U18A]", "self-cleavage": 0.0727}
{"variant": "AACACUGCCAAUGACGGUCCCAAGCCCGGAUAAAAGUGAAGGGGGCGG", "note": "[C14A G39A]", "self-cleavage": 0.409}
{"variant": "AACACUGCCAAUGACGGUCCCACGCCCGGAUAAAAGUGGAGGGGGCGG", "note": "[C14A A23C]", "self-cleavage": 0.348}
{"variant": "AACACUGCCAAUGACGGUCCCAAGCCCGGAAAAAAGUGGAGGGGGCGG", "note": "[C14A U31A]", "self-cleavage": 0.796}
{"variant": "AACACUGCCAAUGACGGUCCCAAGCCCGGAUAAAGGUGGAGGGGGCGG", "note": "[C14A A35G]", "self-cleavage": 0.718}
{"variant": "AACACUGCCAAUUCCGGUCCCAAGCCCGGAUAAAAGCGGAGGGGGCGG", "note": "[G13U U37C]", "self-cleavage": 0.133}
{"variant": "AACACUGCCAAUGGCGGUCCCAAGUCCGGAUAAAAGUGGAGGGGGCGG", "note": "[C14G C25U]", "self-cleavage": 0.0566}
{"variant": "AACACUGCCAAUGGCGGUCCCAAGGCCGGAUAAAAGUGGAGGGGGCGG", "note": "[C14G C25G]", "self-cleavage": 0.0771}
{"variant": "AACACUGCCAAUGGCGGUCCCAAACCCGGAUAAAAGUGGAGGGGGCGG", "note": "[C14G G24A]", "self-cleavage": 0.0254}
{"variant": "AACACUGCCAAUGGCGGUCCCAAUCCCGGAUAAAAGUGGAGGGGGCGG", "note": "[C14G G24U]", "self-cleavage": 0.0521}
{"variant": "AACACUGCCAAUGGCGGUCCGAAGCCCGGAUAAAAGUGGAGGGGGCGG", "note": "[C14G C21G]", "self-cleavage": 0.0402}
{"variant": "AACACUGCCAAUGGCGGUCCAAAGCCCGGAUAAAAGUGGAGGGGGCGG", "note": "[C14G C21A]", "self-cleavage": 0.0482}
{"variant": "AACACUGCCAAUUCCGGUCCCAAGCCCGGAUAAAAGUGGAGGGGGCGU", "note": "[G13U G48U]", "self-cleavage": 0.357}
{"variant": "AACACUGCCAAUUCCGGUCCCAAGCCCGGAUAAAAGUGGAGGGGGCGA", "note": "[G13U G48A]", "self-cleavage": 0.309}
{"variant": "AACACUGCCAAUGGAGGUCCCAAGCCCGGAUAAAAGUGGAGGGGGCGG", "note": "[C14G C15A]", "self-cleavage": 0.644}
{"variant": "AACACUGCCAAUGGGGGUCCCAAGCCCGGAUAAAAGUGGAGGGGGCGG", "note": "[C14G C15G]", "self-cleavage": 0.243}
{"variant": "AACACUGCCAAUGACGGUCCCAAGCCCGGGUAAAAGUGGAGGGGGCGG", "note": "[C14A A30G]", "self-cleavage": 0.803}
{"variant": "AACACUGCCAAUGACGGUCCCAAGCCCGGCUAAAAGUGGAGGGGGCGG", "note": "[C14A A30C]", "self-cleavage": 0.819}
{"variant": "AACACUGCCAAUGGCGGUCCCAAGCCCGGAUAAACGUGGAGGGGGCGG", "note": "[C14G A35C]", "self-cleavage": 0.244}
{"variant": "AACACUGCCAAUGGCGGUCCCAAGCCCGGAUAAAGGUGGAGGGGGCGG", "note": "[C14G A35G]", "self-cleavage": 0.138}
{"variant": "AACACUGCCAAUGACGGUCCCAAGCCCGGAUAAAAGUGGAGAGGGCGG", "note": "[C14A G42A]", "self-cleavage": 0.417}
{"variant": "AACACUGCCAAUGACGGUCCCAAGCCCGGAUAAAAGUGGAGUGGGCGG", "note": "[C14A G42U]", "self-cleavage": 0.368}
{"variant": "AACACUGCCAAUGACGGUCCCAAGCCCGGAUAAAAGUGGAGCGGGCGG", "note": "[C14A G42C]", "self-cleavage": 0.363}
{"variant": "AACACUGCCAAUGGCGGUCCCAAGCCCGGAUUAAAGUGGAGGGGGCGG", "note": "[C14G A32U]", "self-cleavage": 0.184}
{"variant": "AACACUGCCAAUGGCGGUCCCAAGCGCGGAUAAAAGUGGAGGGGGCGG", "note": "[C14G C26G]", "self-cleavage": 0.0666}
{"variant": "AACACUGCCAAUGGCGGUCCCAAGCACGGAUAAAAGUGGAGGGGGCGG", "note": "[C14G C26A]", "self-cleavage": 0.0764}
{"variant": "AACACUGCCAAUGACGGUACCAAGCCCGGAUAAAAGUGGAGGGGGCGG", "note": "[C14A C19A]", "self-cleavage": 0.366}
{"variant": "AACACUGCCAAUGACGGUUCCAAGCCCGGAUAAAAGUGGAGGGGGCGG", "note": "[C14A C19U]", "self-cleavage": 1.07}
{"variant": "AACACUGCCAAUGACGGUGCCAAGCCCGGAUAAAAGUGGAGGGGGCGG", "note": "[C14A C19G]", "self-cleavage": 0.359}
{"variant": "AACACUGCCAAUGGCGGUCCCAAGCCCGGAUAAAAGUGGAGGGGGCGA", "note": "[C14G G48A]", "self-cleavage": 0.0949}
{"variant": "AACACUGCCAAUGGCGGUCCCAAGCCCGGAUAAAAGUGGAGGGGGCGC", "note": "[C14G G48C]", "self-cleavage": 0.163}
